The results in this text go back to paper PMC8592465.

In assay [1] the target is GfcD-biotin (from pBH31, His-tag removed, biotinylated) (Escherichia coli O127:H6 str. E2348/69) (UniProt P75882). The assay is described as follows: BLI; biotinylated GfcD on streptavidin sensor, GfcB, GfcC or GfcBC in solution 3.75-60 μM, 25°C, 20 mM Tris-HCl pH 7.5, 150 mM NaCl, 0.1 mg/mL BSA, 0.02% DDM; 1:1 model.
Assay [2] concerns the target GfcC (expressed from pMCSG7 without signal sequence, His6-tag removed) (Escherichia coli O127:H6 str. E2348/69) (UniProt P75883). The assay is described as follows: ITC; 100 μM GfcB injected into 10 μM GfcC, 25°C, 20 mM Tris-HCl pH 7.5, 150 mM NaCl; 1:1 model.
Assay [3] has as its target GfcC-biotin (from pMCSG7, His6-tag removed, biotinylated) (Escherichia coli O127:H6 str. E2348/69) (UniProt P75883). The assay is described as follows: BLI; biotinylated GfcC on streptavidin sensor, GfcB (C-terminal His6, pETBlue2) in solution 0.1-1.6 μM, 25°C, 20 mM Tris-HCl pH 7.5, 150 mM NaCl, 0.1 mg/mL BSA; fit 1:1 and 1:1 with conformational change.
For assay [4], the target named is GfcD (expressed from pBH31, residues 22-698, His-tag removed by TEV) (Escherichia coli O127:H6 str. E2348/69) (UniProt P75882). Briefly: ITC; 160 μM GfcB-GfcC complex injected into 20 μM GfcD, 25°C, 20 mM Tris-HCl pH 7.5, 150 mM NaCl, 0.02% DDM; 1:1 model, n held at 1.0.
The target of assay [5] is GfcB-biotin (from pMCSG7, His6-tag removed, biotinylated) (Escherichia coli O127:H6 str. E2348/69) (UniProt P75884). Briefly: BLI; biotinylated GfcB on streptavidin sensor, GfcC in solution 0.2-1.6 μM, 25°C, 20 mM Tris-HCl pH 7.5, 150 mM NaCl, 0.1 mg/mL BSA; fit 1:1 and 1:1 with conformational change. (In general: BLI is a label-free optical method that tracks binding on a fibre tip over time.)

In assay [6] the target is His6-GfcB (from pMCSG7, tag kept) (Escherichia coli O127:H6 str. E2348/69) (UniProt P75884). Briefly: cross-linking; purified proteins mixed at 5 μM in 20 mM Hepes, 150 mM NaCl, 0.06% DDM pH 7.5, cross-linked with DSP 1 hour at room temperature, SDS-PAGE, blots with anti-polyhistidine and anti-GfcC.

pKd: −log10 of the molar value.

A word on the pKd: it is −log10 of the Kd, conventionally taken in molar units. A higher pKd goes with a low Kd. The koff is the rate constant with which the complex falls apart. Lower therefore signals a long-lived complex. As usually defined, the kon is a measure of how fast the partners come together. A low value points to slow association. In general, stoichiometry N refers to the number of molecules, sites or subunits per partner or assembly. In assay [1], “GfcB (expressed from pMCSG7 without signal sequence, His6-tag removed) (from UniProt P75884 16-214) (natural protein)” had a pKd of 4.85, a koff of 0.00926 s⁻¹ and a kon of 652 M⁻¹ s⁻¹. Besides, in assay [2], the pKd is 7.00, the dH was -6.92 kcal/mol and the stoichiometry N amounted to 1.01.
As to “GfcB with C-terminal His6-tag expressed from pETBlue2(gfcB) (from UniProt P75884 16-214) (natural protein)”, in assay [3], the KD (1:1 with conformational change, binding step) is 407 nM; the pKd is 6.76; the ka1 (1:1 with conformational change, binding step) amounted to 80400 M⁻¹ s⁻¹; the kd1 (1:1 with conformational change, binding step) was found to be 0.0328 s⁻¹. In assay [3], this substance yielded a kd2 (1:1 with conformational change, conformational step) of 0.0107 s⁻¹; a koff of 0.0126 s⁻¹; a kon of 71700 M⁻¹ s⁻¹.
With “GfcB-GfcC heterodimer (from UniProt P75884 16-214; P75883 23-248) (complex)”, in assay [1], the pKd is 5.04, the koff turned out to be 0.00716 s⁻¹ and the kon was found to be 781 M⁻¹ s⁻¹. In assay [4], the pKd is 4.55 and the dH was -7.24 kcal/mol.
Consider “GfcC (expressed from pMCSG7 without signal sequence, His6-tag removed) (from UniProt P75883 23-248) (natural protein)”, for which, in assay [1], the pKd was 3.59, the koff is 0.0286 s⁻¹ and the kon was 111 M⁻¹ s⁻¹. In assay [5], the KD (1:1 with conformational change, binding step) was determined as 1010 nM; the pKd is 6.43; the ka1 (1:1 with conformational change, binding step) is 59900 M⁻¹ s⁻¹; the kd1 (1:1 with conformational change, binding step) turned out to be 0.0603 s⁻¹. In assay [5], the kd2 (1:1 with conformational change, conformational step) is 0.015 s⁻¹; the koff was 0.0196 s⁻¹; the kon was determined as 52300 M⁻¹ s⁻¹.
In assay [6], “His6-GfcB (from pMCSG7, tag kept) (from UniProt P75884 16-214) (natural protein)” came in with a stoichiometry N of 2.
